Laboratory results reported in PMC5449658.

Key:
[1] = target: H6-TacT^WT toxin (Gcn5-related N-acetyltransferase TacT) (Salmonella enterica subsp. enterica serovar Typhimurium LT2) (UniProt Q8ZL98); assay: SEC
[2] = target: TacAT^WT complex (one H6-TacT with one TacA) (Salmonella enterica subsp. enterica serovar Typhimurium LT2) (UniProt Q8ZL98); assay: SEC; Superose 12 10/300 GL; 50 mM HEPES pH 7.0 at 4°C, 150 mM NaCl, 20% glycerol; co-purified TacAT complexes applied; molecular weight from a standard curve of gel filtration standards

Chain of UniProt Q8ZL98 (Q8ZL98 whole entry): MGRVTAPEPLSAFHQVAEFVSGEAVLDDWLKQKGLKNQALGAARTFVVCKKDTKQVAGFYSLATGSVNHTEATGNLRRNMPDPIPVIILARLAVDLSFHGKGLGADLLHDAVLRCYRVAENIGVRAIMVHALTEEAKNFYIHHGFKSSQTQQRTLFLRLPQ

Substance | stoichiometry N [1] | stoichiometry N [2]
TacA^WT antitoxin (tagless native TacA) (natural protein) | 1 | 
TacAT^WT complex (one H6-TacT with one TacA) (from UniProt Q8ZL98 1-161) |  | 2
